Measurements: patent US20030096379A1, “Method for producing tryptamine derivatives” (priority 2001, published 2003)

B1: TrpBA: wild-type E. coli DH5α tryptophan synthase, E.C.4.2.1.20, α- and β-subunits coexpressed (protein, UniProt P0A877 1-268; P0A879 2-397, looked up)
Tryptophan synthase alpha …: MERYESLFAQLKERKEGAFVPFVTLGDPGIEQSLKIIDTLIEAGADALELGIPFSDPLADGPTIQNATLRAFAAGVTPAQCFEMLALIRQKHPTIPIGLLMYANLVFNKGIDEFYAQCEKVGVDSVLVADVPVEESAPFRQAALRHNVAPIFICPPNADDDLLRQIASYGRGYTYLLSRAGVTGAENRAALPLNHLVAKLKEYNAAPPLQGFGISAPDQVKAAIDAGAAGAISGSAIVKIIEQHINEPEKMLAALKVFVQPMKAATRS
Tryptophan synthase beta chain: TTLLNPYFGEFGGMYVPQILMPALRQLEEAFVSAQKDPEFQAQFNDLLKNYAGRPTALTKCQNITAGTNTTLYLKREDLLHGGAHKTNQVLGQALLAKRMGKTEIIAETGAGQHGVASALASALLGLKCRIYMGAKDVERQSPNVFRMRLMGAEVIPVHSGSATLKDACNEALRDWSGSYETAHYMLGTAAGPHPYPTIVREFQRMIGEETKAQILEREGRLPDAVIACVGGGSNAIGMFADFINETNVGLIGVEPGGHGIETGEHGAPLKHGRVGIYFGMKAPMMQTEDGQIEESYSISAGLDFPSVGPQHAYLNSTGRADYVSITDDEALEAFKTLCLHEGIIPALESSHALAHALKMMRENPDKEQLLVVNLSGRGDKDIFTVHDILKARGEI
B2: TDC1: C. accuminata tryptophan decarboxylase expressed in E. coli DH5α (protein, UniProt P93082 1-502, looked up)
Tryptophan decarboxylase TDC1: MGSLDSNYDTESPASVGQFNPLDPEEFRKQAHCIVDFIADYYKNIESYPVLSQVDPGYRHSRLGKNAPYRSEPFESILKDVQKDIIPGMTHWMSPNFFAHFPATVSSAAFVGEMLCTCFNSVGFNWLASPAATELEMVVIDWLANMLKLPKSFMFSGTGGGVLQGTTSEAILCTLIAASPMHFEIVGVKTSTSFVVYGSDQTHSTYAKACKLAGILPCNIRSIPTTADSNFSVSPLLLRRAIEADKAAGMVPLYICATVGTTSTTAIDPLSSLADVANDYGVWFHVDAAYAGSACICPEFRHYLDGIERADSLSLSPHKWLLSYLDCCCLWVKSPSLLVKALSTDPEYLKNQPSESKSVVDYKDWQVGTGRRFKALRLWFVMRSYGVANLQSHIRTDVQMAKMFEGFVKSDPRFEILVPRVFSLVCFRLNPISGSDPTGTEALNRKLLDWVNSTGRVYMTHTKVGGIYMLRFAVGATLTEKRHVSSAWKLIKEGADVLLKED
B3: TDC2: C. accuminata tryptophan decarboxylase expressed in E. coli DH5α (protein, UniProt P93083 1-498, looked up)
Tryptophan decarboxylase TDC2: MGSIDSNYDTESAGQCRPLEPEEFRKQAHQMVDFIADYYKNIESYPVLSQVEPGYLQSRLPETAPYRPEPFESILKDVHKDIIPGVTHWLSPNFFAYFPATVSSAAFVGEMLCTCFNAVGFNWLASPAELELEMVVMDWLASMLKLPNSFTFLGTGGGVIQGTTSEAILCTLIAARDRALESIGVDSIHKLVVYGSDQTHSTYAKACNLAGILPCNIRSIRTEAVANFSLSPDSLHREIEADVAAGMVPLYLCATVGTTSTTAIDSLSPLADVANDYGLWFHVDAAYAGSACICPEFRHYLDGIERADSLSLSPHKWLLSYLDCCCLWVKRPSVLVKALSTDPEYLKNKPSESNSVVDFKDWQVGTGRRFKALRLWFVMRSYGVANLQSHIRSDIQMAKMFEEFVNSDPRFEIVVPRVFSLVCFRLNPFSKSDPCNTELLNRKLLEWVNSTGQVYITHTKVGGVYMLRFAVGATLTEEHHVSAAWKLIREGADALLCS

Tests used:
TrpBA and TDC1 = assay: Coupled enzyme synthesis monitored by HPLC; type: biochemical; conditions: L-serine, PLP, pH 8.5 phosphate buffer, 37° C.
Procedure: To a solution containing L-serine (25 μmol), pyridoxal phosphate (0.05 μmol) and TrpBA (0.02 to 1.5 units, depending on the substrate), TDC1 (0.2 mL 0.6 units) and KPi buffer (0.05 mmol, pH 7.5) in a volume of 0.8 mL were added […] of 5 mM indole derivative in 20% v/v ethanol/water. The mixture was incubated at 37° C. and aliquots were quenched and analyzed as described for Example 8. In cases where tryptamine and/or tryptophan standards were not available, peaks were collected for mass spectral analysis. Electrospray mass spectral analyses were performed.
Mixtures containing indole, L-serine, PLP and TDC1 were incubated in pH 8.5 phosphate buffer, analyzing aliquots by HPLC, as described in Example 12.
The procedure used in Example 24 was carried out by substituting indole with 2-methylindole, 4-hydroxymethylindole, 5-methoxy-, 5-hydroxymethyl-, 5-methoxycarbonyl, and 5,6-dimethoxyindole.

TrpBA = biological target: T1, TrpBA (Escherichia coli, UniProt P0A879); assay: Relative rates of tryptophan derivative synthesis by HPLC, TrpBA; type: biochemical, E. coli; parameters: key: **: rate too slow to quantitate; conditions: initial rate estimated by HPLC, indole = 100%
T1 construct: made in house; host or cells: E. coli LMG194 (pBAD) or BL-21 (pET)
Procedure: (§1) Reaction mixtures were prepared as in Example 6 and were incubated at 37° C. Aliquots (100 μL) were removed and quenched by addition of to 300 μL of 0.5 M sodium citrate, pH 3.0 in 10% v/v acetonitrile/water in 2 ml microcentrifuge tubes. Following centrifugation for 10 min at 13,000×g, the supernatants were passed through 0.45μ membrane filters prior to HPLC analysis of 20 μL of filtrate.
(§2) TnA reactions were run with L-serine as the 3-carbon substrate.

[1] = biological target: T2, E. coli DH5α tryptophan synthase (TrpBA) (Escherichia coli, UniProt P0A879); type: biochemical; parameters: key: +: a clear ninhydrin-positive spot at the Rf of standard tryptophan derivatives after 16-65 h; (+): a weak spot in the product region; −: no product observed; NR: experiment not run; conditions: indole derivative + L-serine + PLP, 37° C., 16-65 h, ninhydrin
T2 construct: made in house; host or cells: E. coli LMG194 (pBAD) or BL-21 (pET)
Procedure: (§3) A mixture containing 2 μmole of the indole derivative, 0.05 μmole of PLP and 50 μmol of L-serine in 40 mM KPi buffer in 8% v/v ethanol water, pH 7.5, was warmed to 37° C., then enzyme solution was added to give a final volume of 1 mL. Aliquots (100 μL) were quenched at intervals of 2, 6, and 24 hours or more in microcentrifuge capsules containing 25 μL of 6 M HCl. The quenched samples were evaporated in a Savant Speed-vac. The residues were resuspended in methanol/water (1:1, 50 μL) and analyzed by TLC on Silica gel GF254 plates alongside tryptophan and tryptamine standards, eluting with CH2Cl2/EtOH/H2O/HOAc 77:20:2:1. Products were visualized first by using short-wave UV light, then with ninhydrin spray reagent (1/1/98 w/v/v ninhydrin/HOAc/EtOH) followed by heating.
(§4) Substituted indoles were incubated with L-serine, PLP and enzyme (TrpBA or TnA) prior to TLC analysis as generally described in Example 6. Serine, which can be used instead of pyruvate and ammonia for tryptophan synthesis with TnA, was employed as the 3-carbon acid because pyruvate tended to obscure the tryptophan product spots when plates were visualized with ninhydrin. TnA-catalyzed formation of tryptophan was also faster when serine was the 3-carbon donor. Reaction rates for several substrates were also estimated by HPLC.
(§5) In Table 4, “+” indicates a clear ninhydrin-positive spot at the Rf of standard tryptophan derivatives after 16-65 h; “(+)” indicates a weak spot in the product region; “−” means no product observed, “NR” means experiment not run. ESMS=electrospray mass spectrometry. Unless otherwise indicated, the mass value given represents the singly-protonated molecular ion (M+1).

tryptophanase (TnA) = biological target: T3, tryptophanase (TnA) (Escherichia coli, UniProt P0A853); type: biochemical, E. coli; parameters: key: +: a clear ninhydrin-positive spot at the Rf of standard tryptophan derivatives after 16-65 h; (+): a weak spot in the product region; −: no product observed; NR: experiment not run; conditions: indole derivative + L-serine + PLP, 37° C., 16-65 h, ninhydrin
T3 construct: made in house; host or cells: E. coli LMG194 (pBAD) or BL-21 (pET)
Procedure: as §3, §4, §5

TnA = biological target: T4, TnA (Escherichia coli, UniProt P0A853); assay: Relative rates of tryptophan derivative synthesis by HPLC, TnA; type: biochemical, E. coli; conditions: initial rate estimated by HPLC, indole = 100%, L-serine as the 3-carbon substrate
T4 construct: made in house; host or cells: E. coli LMG194 (pBAD) or BL-21 (pET)
Procedure: as §1, with “Aliquots” for “Reaction mixtures were prepared as in Example 6 and were incubated at 37° C. Aliquots”
as §2

[2] = pH-rate profiles for tryptophan-metabolizing enzymes; type: biochemical; conditions: for activity over the entire optimum pH range shown by TrpBA: pH 7.5 to 9.5
Text: Both AAADs TDC1 and TDC2 were active over the entire optimum range shown by TrpBA. These broad activity ranges make it clear that the coupled enzyme process is not limited by pH.

[3] = Tryptophan synthase activity of the enzyme preparation (290 nm assay); type: biochemical, E. coli
Procedure: (§6) Tryptophan synthase activity was assayed by monitoring the increase in absorbance at 290 nm of a mixture containing serine, indole and PLP (Higgins, W., et al., Biochemistry, 1979, 18, 4827). TnA-catalyzed tryptophan synthesis was also measured by the 290 nm assay, while the tryptophan lyase reaction rate was measured by monitoring the reduction in NADH in reaction mixtures containing L-tryptophan and lactate dehydrogenase, indicating the amount of pyruvate released. Tryptophan decarboxylase was assayed colorimetrically by monitoring the sabsorbance at 580 nm produced by serotonin (AAADs) or tryptamine (TDCs) following treatment of reaction aliquots with Ehrlich's reagent (4-N,N-(dimethyl)aminobenzaldehyde in ethanolic HCl; Nakazawa, H.; Kumagi, H.; Yamada, H. Biochem Biophys. Res. Commun., 1974, 61, 75-82). Serotonin could be detected with approximately 5-fold higher sensitivity by this method as compared with tryptamine. The Ehrlich reagent assay using a microtiter plate format for simultaneous analysis of multiple enzyme samples may also be used. HPLC analysis was performed on acid-quenched reaction aliquots by using a base-deactivated C8 reversed-phase support (Shandon Hypersil BD8). HPLC analysis of acid-quenched aliquots permitted calculation of a rate ratio of 4.5 to 1 for pkAAAD-catalyzed DOPA decarboxylation relative to that of L-5-hydroxytryptophan, in good agreement with the accepted ratio of approximately 5:1. (See Sourkes, T. L. Methods Enzymol., 1987, 142, 170-178, which is incorporated herein by reference.)
Reaction mixtures were prepared as in Example 6 in polymethacrylate or quartz spectrophotometer cuvettes, and the increase absorbance were measured immediately at 290 nm, assuming a change in extinction coefficient for the indole-tryptophan conversion is δ290=1.85 MM−1 cm^−1. For TrpBA, the rate at 37° C. is approximately 2.8 fold higher than at 23° C.
Activity is expressed as μmol product formed per minute, TrpBA activity is reported for the reaction: indole+serine−>tryptophan at room temperature as described in the next section. Tryptophanase is reported for the reaction: tryptophan−>indole+pyruvate+NH4^+ at room temperature. The rate of tryptophan synthesis for TrpBA under our assay conditions is approximately 3-fold higher at 37° C.

[4] = Decarboxylase activity of the enzyme preparations (Ehrlich's reagent); type: biochemical
Procedure: as §6
A mixture (0.95 mL) containing L-5-hydroxytryptophan (2 mM), PLP (0.25 mM) and pH 7.5 KPi buffer (44 mM) was warmed to 37° C., then 50 μL of enzyme was added. Reaction aliquots were quenched in microcentrifuge capsules containing 50 μL each of 6M HCl to quench the enzyme reaction at 2, 5, and 20 min. Quenched aliquots were heated at 50° C. for 40 min with 750 μL each of Ehrlich's reagent (2:24:74 w/v/v […]: conc HCl: ethanol). Absorbance was read at 580-nm and compared with standards of serotonin (10-250 μM) or tryptamine (50 to 2000 μM).
Decarboxylase enzyme activity was determined using L-5-hydroxytryptophan as the substrate unless otherwise stated.

[5] = Table 2, L-5-hydroxytryptophan as substrate

Row | Molecule | TrpBA (tryptophan product spot, TLC analysis) [1] | TnA (tryptophan product spot, TLC analysis) (tryptophanase (TnA)) | Relative Rate (TnA) (TnA) [%] | activity over the entire optimum pH range shown by TrpBA [2] | Crude specific activity [4, 5] [units/mg] | Purified specific activity [4, 5] [Units/mg] | Crude specific activity ([4]; Table 3, decarboxylases) [units/mg] | also measured
1 | COc1cc2cc[nH]c2cc1OC [5,6-dimethoxy, 5,6-dimethoxyindole] | − | (+) | 2.1 |  |  |  |  | formation of tryptophan derivative and tryptamine (HPLC peaks) (TrpBA and TDC1): a second peak representing formation of tryptamine; Relative rate (TrpBA) (TrpBA): **
2 | c1cc2cc3c(cc2[nH]1)OCO3 [5,6-methylenedioxy-] | − | + | 1.0 |  |  |  |  | Relative rate (TrpBA) (TrpBA; L-serine): 0.018%
3 | B1 |  |  |  |  |  |  |  | percent of the maximum rate ([2]; between pH 7.5 and 9.5, L-serine and indole): at least 90%; rate at 37° C. relative to 23° C. ([3]; 290 nm assay): approximately 2.8 fold; Crude specific activity ([3]; Table 3, TrpBA): 1.2 units/mg; Crude spec activity ([3]; TrpBA, indole+serine->tryptophan, room temperature): 1.2; Purified specific activity ([3]; TrpBA, indole+serine->tryptophan, room temperature, after DEAE cellulose): 2.2 Units/mg; rate of tryptophan synthesis at 37° C. relative to room temperature ([3]; assay conditions of Table 1): approximately 3 fold
4 | B2 |  |  |  | active | 0.11 | 0.3 | 0.11 | 
5 | B3 |  |  |  | active | 0.12 | 0.2 | 0.12 | 
